The source of these data is publication PMC8712213 (Nature, 2020).

In this assay the target is ALG6 from Saccharomyces cerevisiae (tag-cleaved) (S. cerevisiae, UniProt Q12001). The experiment in a line: SEC. For orientation: Size exclusion chromatography separates by hydrodynamic size, large species first.
Sequence of ALG6 from Saccharomyces cerevisiae (tag-cleaved) (Q12001 whole entry): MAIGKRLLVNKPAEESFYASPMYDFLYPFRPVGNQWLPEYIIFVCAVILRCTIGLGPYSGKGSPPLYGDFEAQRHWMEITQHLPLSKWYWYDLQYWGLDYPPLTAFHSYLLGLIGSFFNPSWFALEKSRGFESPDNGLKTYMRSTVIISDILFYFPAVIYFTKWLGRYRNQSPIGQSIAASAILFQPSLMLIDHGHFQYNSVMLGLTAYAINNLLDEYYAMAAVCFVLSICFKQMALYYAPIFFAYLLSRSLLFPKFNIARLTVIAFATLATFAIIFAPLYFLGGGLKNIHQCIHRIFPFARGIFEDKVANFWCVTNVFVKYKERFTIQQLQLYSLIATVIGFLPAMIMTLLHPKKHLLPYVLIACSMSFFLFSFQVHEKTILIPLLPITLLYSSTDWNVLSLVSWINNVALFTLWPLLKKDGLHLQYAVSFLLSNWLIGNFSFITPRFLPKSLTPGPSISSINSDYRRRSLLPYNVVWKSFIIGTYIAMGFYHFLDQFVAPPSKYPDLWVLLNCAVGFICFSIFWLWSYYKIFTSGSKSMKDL

B1: 6AG9-Fab (Fab, V domains shown)
VH: EVQLVESGGGLVQPGGSLRLSCAASGFNVYSSSIHWVRQAPGKGLEWVASISSYSGYTSYADSVKGRFTISADTSKNTAYLQMNSLRAEDTAVYYCAREYWSWYSYSYGIDYWGQGTLVTVSS
VL: DIQMTQSPSSLSASVGDRVTITCRASQSVSSAVAWYQQKPGKAPKLLIYSASSLYSGVPSRFSGSRSGTDFTLTISSLQPEDFATYYCQQSYWVGYPITFGQGTKVEIK
Consider B1, for which the binding result is reported as “binds”.
